Assay: soluble on expression in E. coli; label from the status in PepcDB or PDB records
In the case of “MEQQLNLGHLLTAARLLDIGALDISSLDLGALTSTSSSPGSSSPAMFDLSNESELRSLFCGKLKVDKKQSSCASNASTSSQPYCSSPPARKSSKHSRTAHNELEKTRRANLRGCLETLKMLVPCVSDATRNTTLALLTRARDHIIELQDSNAAQMKKLNDLRDEQDELVAELAQLQADEEVAQATSQACQTLSQSRPESRASSFTSTSSRDSPCYLEYSPSSKPMDSHKPTIIDLYAEGLIPRGPITFPRPLVYPHNVFDLMNLPPTPFDVSQFLPINLQV”, the “soluble on expression in E. coli” value is reported as “not soluble”. With “MEQRDMKTVFLLDRSAKFVENCNETFDVTIREGPKQKKLQFEKTIWTWCLEGIFEMHRILSDVYPRGTLQLRFALADFMGKMLDTQWTDGFLTREELGELIETVSRPSEANTDITPIGGLTMAIEALAVQSPEQRNYNYDVRYSANKRTAQNSEVIRVTRELRGLPPLPTVQNAGNLIMYTRLNTQEEMEQLQTEIVELVVSRNKIADAPSNKTFCPITSLRLFIVNYYATGDECTVKTHSLQAHPDLPLLKIWVISRKAADMCDAIHSLLVDAFDLGSTTVTKIPMKEDNRGSSNYDVELFHSGKVHAMLKENNLIDTVSKKGDSDKGVTYDTMRLTWTTAPKTKWSLFPYHGAAVPCTTAQAYSRPSACLTQFVRDGRCVMLDSEKTTELGMNMHEKLVSHLLIANRGRIFIQEIDFMQKKADRIAGKLKRPRVLHAPEDPINMNQLRHTYKQLELRFVAKNRMDDNLTEKETEKWTGLKNSDLKKRFQRISKNIPCFAADTFIFNEKVTPKLEPLISLITKTTLSENDVDKCKQCIVTLYQMKNERQYVISPESDIKISSVRNLKDPDEQLRVTFVELAKHIMKYVTFSEKHKEIYKTYMTTLNVDKLLEVDLDDDEAVDKMFVKFSFFGKSDTASKTDEDEDSSDDEDEEILKSPALKKLFGYVDARDERKYEELYGQGFKKKKPEVEEKPIVMAKEIKVDIFSNMCDMLEVKESKIRREFVGRETHGNIAPLYPQLAEKLERPASPAATERGTERVRNTAERGGSGTPPPGGRRNFQ” the “soluble on expression in E. coli” value was “not soluble”. For “MERDGYKCRICDHSYLDIHYKDGNVENKNLENLIVLCKQCHYRLHQKERMESIKQAFEDFLDELSKNPIEVVIDFSFKKIVESNEEKIRREIIQGFTRPFGVISRIQEKVRDAIMKEIEEEIEKEQASTPEHLRKVVLERNNYRCSVCGYGYLEVHHVDGNILNNTLDNLVTLCRRCHRKVHYHPSFHTTPEDMDKCIRSFHHEFYSTIYEIMKNKKGNIRISIKFDQLGVKGVKISRAQFKRINGLFNHEVINDGIFKQWEREIKNYLSRLEWEQQKEIYRNVYFLLECILPKDSFEAFVNLARKGKFDRRTLREAKKVLKNSIKLEHHHHHH”, the “soluble on expression in E. coli” value was “soluble”. In the case of “MERGRSDMEMINNMANCLILLSKAHQNDTKSRVFACKTCNKEFPSFQALGGHRASHRRSAALEGHAPPSPKRVKPVKHECPICGAEFAVGQALGGHMRKHRGGSGGGGGRSLAPATAPVTMKKSGGGNGKRVLCLDLNLTPLENEDLKLELGRFIF”, the “soluble on expression in E. coli” value is reported as “soluble”. For “MERILEKVRAKSEIPVYDKSIENVLSAILTTNDFWKIVDLSEEPLPLVADIIRILEEEGLVKISNGIEFTEKGNEFIKSYGIGAKDNSVCECCEGRGVSLKNYQDLLERFKEIVKNRPMPKHEYDQGFVTPECTISRIALMNSRGDLFNKDVLVLGDDDLTSIALMLSNLPKKIVVVDIDDRLINFIKEVAEQLNYKNIEVITLDLRKPLPEKYSRAFDTFITDPPETVYAVKTFIGRGISALKGERRAGYFGITRRESSLDKWREIQRTLINDFNVVITDIIRNFNHYVNWGYEEETRAWKLAPVKKKPEDIWYKSYMFRIETLKDSRGFEEEVDVGDELYNDAESSTT”, the “soluble on expression in E. coli” value was “not soluble”. In the case of “MERKKAVVLLSGGLDSSTVLAYAISLGYEVHAISFDYGQRHSREMNSSEELAKYYGVDRKIVHVDLRSIGKSALTDDIEVPSRDLESIPEEIPVTYVPARNTIFLSIAAAYAESIGSTDIFIGANAIDYSGYPDCRPEYFNAMEKALTLGTEIGLRKGMHINVPLQYLTKADIIRMGLKLGVPYEKTWSCYKGGEKACGECDSCLLRLKGFMEAGSEDPLEYEKYPTFYKDYIEKRKK”, the “soluble on expression in E. coli” value is reported as “soluble”. With “MERLEEARKRLEEARRVAVLTGAGISKPSGIPTFRDAEGLWKNFNPLDYATPEAYARDPEKVWAWYAWRIQKVREAKPNPAHYALVELERRILSRGGSFLLVTQNVDGLHALAGSQNLVELHGNLLRARCEACGKRFPLPEAFAPPPFCPACGHRARPDVVWFGEFLPEGAWERAERAFAEADFALVVGTSAEVEPAASLGRIAFASGAYLVEVNPEPTPLTPLAHLSLRTGAVEGMALLLPPSPEDQAEGHLS” the “soluble on expression in E. coli” value was “soluble”. For “MERNMKNKNKMLDLMLEAVNNIKDAMPKMQIGAPVRQNIDAGERPCLQGYYTAAELKPVLDRPPQDSNAPGASGKAFKTTNLSVEEQKEKERGEAKHCFNAFASDRISLHRDLGPDTRPPEYVEEYLLFILYHQALQGREG”, the “soluble on expression in E. coli” value was “not soluble”. With “MERSAIQIPAGRIDDAVAKVDGLVGELMQNTGIPGMAVAIVHGGKTLYAKGFGVRDVGKGGGPDNKVDADTVFQLASVSKSVGATVVAHAVTDNVVTWDTPVVSKLPWFALRDPYVTGQVTIADLYSHRSGLPDHAGDLLEDLGYDRRQVLQRLKYLPLAPFRISYAYTNFGVTAAAEAVAAAAGQSWEDLSDEVLYRPLGMGSTSSRFTDFLARPNHAVNHVKVADRWEARYQRDPDAQSPAGGVSSSLNDMTHWLAMVLADGVYNGRRITSPEALLLVYTPQVISRHPVSPRARASFYGYGFNVGVTSSGRTEYSHSGAFGLGAAANFVVLPSEDLAIIALTNAGPIGVPETLTAEFMDLVQYGQVREDWAALYKKAFAPLNELAGSLVGKQSPANPAPSRPLNDYVGVYANDYWGPATVTYHDGQLRLSLGPKNQTFDLTHWDGDTFTFTLSTENALPGSISKATFAGDTLNLEYYDADKLGTFTRLEHHHHHH” the “soluble on expression in E. coli” value was “not soluble”. In the case of “MESISRSPRIFLLSLGRWNSGISVCWYSPRHPRAIISDPAPRIAREHATVLFGDSHASEENNAARRRNFHNKKTSRGGNDDKQSRGNNAEKRKRRDPMTSQGPDSDEDELQEMTNKDRLKRAKRKGIDPMDPGAHGGAPVEKWSDGLRVDHVTGADVTAGGPLFQQRPYPAPGAILRKHKPQDEEDDQQFNFLKSF”, the “soluble on expression in E. coli” value is reported as “not soluble”. With “MESTQKDIKLEPDEFNYIIAPGAPESENLAENPENPVDLSEIPLETKPAWFPSSKGRSIVWEHITWVAESQRAACNYCAAEFQVKGGTSALLRHLKTIHPAAINFDPENPPPVARRKRKKMEDYTIVTEDTKSYMDNLLEQFLNVDDSAPRGGLPDHDSPQHMLVVDPQSRADSEIDAVIRNLQQETEQNGLLEPEPDQALKKLLGIDDGRCEEVIAIAAPIQQDEEKQVSSSSGGAQTKKRRADEQKLTENPALNSGKFSLSILSAIRRPPLPSSTATSSSAAAPQIPAMTSSAVASATSAAAAATPMMPAKYNAQAVQILDFEAKVLYNQSLHSTIAREDAMTTYYRMKSRKLELEIKKLERELGEEQDEAQEHEE” the “soluble on expression in E. coli” value was “not soluble”. With “MESVLNNEKAIVVFSGGQDSTTCLFYAKKHFKEVELVTFNYGQRHDTEIEVAKQIAQDQGMKHHVLDMSLLSQLTPNALTQHDMEITNNEDGIPNTFVPARNLLFLSFAGALAYQIGAKHIITGVCETDFSGYPDCRDSFIKSMNVTLSLAMDKDFVIHTPLMWLNKAETWKLSDELEVLDYIRTKTLTCYNGIIGDGCGECPACHLRQRGLNQYLESKGAL” the “soluble on expression in E. coli” value was “not soluble”. With “METACERLHVAQETQMQLIEKSSDKLQDHILYWTAVRTENTLLYAARKKGVTVLGHCRVPHSVVCQERAKQAIEMQLSLQELSKTEFGDEPWSLLDTSWDRYMSEPKRCFKKGARVVEVEFDGNASNTNWYTVYSNLYMRTEDGWQLAKAGADGTGLYYCTMAGAGRIYYSAFGDEAARFSTTGHYSVRDQDRVYAGVSSTSSDFRDRP” the “soluble on expression in E. coli” value was “soluble”. For “METAKEMTRESLPIKCLEAVILGIYLTNGQPSIERFPISFKTYFSGNYFHHVVLGIYCNGRYGSLGMSRRAELMDKPLTFRTLSDLIFDFEDSYKKYLHTVKKVKIGLYVPHEPHSFQPIEWKQLVLNVSKMLRADIRKELEKYARDMRMKGLCSH”, the “soluble on expression in E. coli” value was “soluble”. With “METAVEVRAPAAAAWELLTDTRRWSEWGPSVSGVECPERFIGPGTIGWVRTVVGLRLPFRITEFEPGRRWCWSVAGIPATGHRVEPLGQERCRVVFEVPMPAAPYLAVCRVAALRIRSILEGLEHHHHHH” the “soluble on expression in E. coli” value was “not soluble”.

— the DeepSol protein solubility set
